Reference: article PMC6318248, “Oligomerisation of Synaptobrevin-2 Studied by Native Mass Spectrometry and Chemical Cross-Linking” (Journal of the American Society for Mass Spectrometry, 2018)
Where “and” joins values, the source holds several entries; their conditions need not be identical. Equal values may be shown once. Read-outs that look alike come from different tables or passages of the source.

B1: Synaptobrevin-2, C-terminal fragment of the cytosolic domain Syb(49-96) (domain or fragment, Rattus norvegicus, UniProt P63045 49-96, looked up)
chain: NVDKVLERDQKLSELDDRADALQAGASQFETSAAKLKRKYWWKNLKMM
notes: Synaptobrevin-2, Rattus norvegicus, UniProt P63045, residues 49-96 (C-terminal half of the SNARE motif and the juxtamembrane domain); Residual residues of the thrombin cleavage site stay at the N-terminus (measured mass 6045 Da); Plasmid was a gift from R. Jahn; source: E. coli BL21 (DE3), purified (Ni2+ IMAC, thrombin cleavage, reversed IMAC, SEC without detergent); not shown: His-tag, …

Legend:
[1] = target: Synaptobrevin-2, full-length protein Syb(1-116) (Rattus norvegicus) (UniProt P63045); assay: cross-linking; Syb(1-116) in solution (chaps), 10 μM and 100 μM protein, BS3 (83-166 μM at 100 μM protein), 1 h at 25 °C; Coomassie gel and western blot; cross-linked peptides by LC-MS/MS
[2] = target: Synaptobrevin-2, full-length protein Syb(1-116) (Rattus norvegicus) (UniProt P63045); assay: as above; remark: listed apart in the source
[3] = target: the molecule itself; assay: cross-linking; 650 μM Syb(49-96), 180 and 250 μM BS3, 1 h at 25 °C; Coomassie gel and western blot; cross-linked peptides by LC-MS/MS
[4] = target: the molecule itself; assay: native MS; Syb(49-96) at 10 μM, 200 mM ammonium acetate pH 7.0
[5] = target: the molecule itself; assay: ion mobility mass spectrometry; Syb(49-96), nESI, home-built drift-tube instrument, helium buffer gas, soft conditions; limited transmission for high m/z

Molecule	stoichiometry N [1]	stoichiometry N [2]	stoichiometry N [3]	stoichiometry N [4]	stoichiometry N [5]
Synaptobrevin-2, full-length protein Syb(1-116) (from UniProt P63045 1-116) (natural protein)	< 6	2 and < 5			
B1			≤ 10	2	≤ 3
